# Measurements published in US20240026407A1, “MODIFICATION OF SAPONINS” (GLAXOSMITHKLINE BIOLOGICALS SA, priority 2020, published 2024).
# Key:
# Type in all cases: biochemical, Quillaja saponaria
# [1] = Experiment 6-1: screening of rhamnosidases for derhamnosylation of saponins in treated bark extract (2%), QS-17 2296 to QS-18 2150 (PAR %); conditions: TBE 2%, pH 7.5, 30 degC, 18 h; TIC peak area ratio percent of rhamnosylated starting saponin to derhamnosylated product, LCMS/MS; negative controls 4.876, 5.225
# [2] = Experiment 6-1: screening of rhamnosidases for derhamnosylation of saponins in treated bark extract (2%), desglucosyl-QS-17 2134 to QS-21 1988 (PAR %); conditions: TBE 2%, pH 7.5, 30 degC, 18 h; TIC peak area ratio percent, LCMS/MS; negative controls 2.719, 2.158
# [3] = Experiment 6-1: screening of rhamnosidases for derhamnosylation of saponins in treated bark extract (2%), QS-17 2310 to QS-18 2164 (PAR %); conditions: TBE 2%, pH 7.5, 30 degC, 18 h; TIC peak area ratio percent, LCMS/MS; negative controls 3.061, 2.429
# [4] = Experiment 6-1: specificity of rhamnosidases towards other rhamnose residues (C3 saccharide rhamnose, C28 saccharide rhamnose); conditions: TBE 2%, pH 7.5, 30 degC, 18 h; LCMS/MS; negative controls 0.18, 0.17
molecule,measurement,setting,value
"1032 (protein, Spirosoma linguale) MRYIFFLGLLAASLTAFAQTAPTNLRTDLLLHTDKVWSNGFLTNYTLDGADSAKFAGQLALIRSSRPSFSWVLSTAGGTSRQTAYRLILSTSRQKNQADAGDVWDSGKVMSSQSVGILLPASQKLDTNRIYFWKVKVWNERNLESDFSQPKAFRTAPRLTAYETPFYPLVKTEEAPRSQRTLAGQRIVYDFGKDAFGQAFLTVSSASESDTLIVHLGEAVTADGHVNEKPSGTLRYRQIRVPLQKGTHRYAIQFKPDKRNTGPKAILMPDYIGEVLPFRYVELAFNPATRIEQIVRQVVTYPFDDSATTFSSSDSTLNQIWDLCKHTIKATTFTGYYVDGDRERIPYEADALLNQLSHYATDAEYNMAKRSLNYLVFHATWPTEWSLQNVLIAWYDYLYSGDSRTVEALYPELKAKLLLPLARPDGLISTRTGLQTPEFKKSIHYDTFDGRPTIQDIVDWPQQGVLGLGKKEAGETDGFVFTDYNAVVNAFHYQGLVFMAQLASRLGKTDDAAFYANRAGLVRKAFQATFIHPKTGLVRDGEGTDHASLHANMMALAFGLVPEKLQSQVLAHIRSRGMACSVYGSQFLLDALYNANESAYGLALMTSTDERSWYNMLRTGSTMTTEAWDTRYKPNQDWNHAWGSAPANIIVRKLMGVEALTLAYETVQIKPQPDTLRQASLQVATLRGPISVAFDNTPDRFVLRTTLPANTNGVVYLPRKKTKSQVLQNGKSVKAAVEGNFWKITSVGAGTHEWEVR",QS-17 (PAR %),[1],4.730%
same,Peak75 (PAR %),[2],2.411%
same,Peak57 (PAR %),[3],3.044%
same,ratio PP/QS-21,[4],0.17
"1045 (protein, listed as Acidobacterium capsulatum) MLVGGLATAATAQTNLQQLEKTFQNPPDNAKPMLRWWWFGPSVTKPEILREMQQIKAGGFGGFVIHYVYPLALDDPQTGFRNLPFLSPAMLSDVSYANRQAHALGLRAGTALASGWPYGGPMTAVTEAAAKIVQKESTVAPGAHSVALPSIGNGQKLLAVFAQDGSAGSQQKMLPLPAPVTLRMAIPTGTHIVDWYLMSRTGQQVKRAAVDANGFVLDHFSHHAVADHLKNVGDKLVAAFGSEPPDSVFSDSLEVFGADWTPDFLEEFRKKNGYSLLPYLPDLFMKHPDAQALAVRHDWGVTLTALIDENYLTQVNAWARAHHTHLRAQVYGPPAVSLSSNNLVDLPEGEGPQWRQFAYTRWATSAGHLYGRPIISSETFTWLHSPAFRATPLDVKAEADRFFLQGVNQIYCHGWPYSPPSAGEPGWRFYAAAVFDAHNPWWIVMPEVTQYLQRVSWIMRQGAPANRVAIFLPEDDAWAAFTPGQVALTGLLPRWITPQLTQAIENSGYDFDYIDAAAIQARGIHYSLLILPNVDRISPAALTAIQQYEKSGGKVIALGRIPAHAPGFLHYEQISAEVNRESHAFFGHPGARVRVVQAVSGLGDALHQMLTPAMTLSAAKPAVGFVRRKLDDADIYFLANTSNVSIHTVAHLRSRYTSGTWLDPMSGKAYAAQSRNGGWPLHLAPYGSTILVLHAKNVRLPVAAGHDSFNPSSTKAIADLSSDWNVSFPALHLQEPMATLASWTKNEKTLYYSGVAVYRRTLEVAQNDLDHAPLLLSFGQGTPVSPSAFHRQMGTRAWLNPPVHVAAVVYVNGRLAGTVWHPPYVLAVGGLLKPGANQIEVRVANTAINEMAGKSLPDYRLLWARYGRRFEPQDMKHLQPLPSGLLGKVELLEGESR",QS-17 (PAR %),[1],4.741%
same,Peak75 (PAR %),[2],2.442%
same,Peak57 (PAR %),[3],2.865%
same,ratio PP/QS-21,[4],0.17
"997 (protein, Lachnoclostridium phytofermentans) MKSFIKELIEQKEGNYILPFFWQHGESEGKLREYMEAIHSCGIRAVCVEARPHPDYLGPGWWHDLDIIIDEAKKRDMKLWILDDAHFPTGYAAGKIAESEDKYCKQYISRKFIDVSGPTPEVEVNLAAMMMPIMLPSGLNLEMFGMSSEKKRYFTDDRILSIRAYQMDKDSSLIGEGIDLTTNIVNGKLIWDVPKGTWRINVLFITRNGEGRCDYINMVDKDSCRIQIDAVYEPHYEHYKEEFGKTIAGFFSDEPCLGNSIGYNFDESIGKKKTPLPWSSQLEKMLEEKLGKEYLPYYPALWTDMADEKVNARVRYAYMDCVTRLVEENFSRQIGQWCEERGVEYIGHIVEDNNQHSRLGSSQGHFFRSMMGQHMSGIDNIGDQVLPGGENHKREALLGADKDGEFYHYELGKLGSSLAHIDPKKQGRAMCEIFGAYGWRLGIRTMKYLMDHFLVRGINVYVPHAFSPKDFPDSDCPPHFYAGGEDPQFNYFKKLMHYTNRMCHLLNGGTHIAPAAVLYHGEAEWTGGCMFNQKVARELLESQIDFDILPSDVFADMSAYNATFDGFLQVNGESYDCFIVPYAEFITKEVAVFAGTASKKGFPVFFVQGLPESICNIDKKEEEKLLLDGMSECIVVPLEALSKTLKDNKLFEISSDNQFDGLRYYHYRKEQTELYMFSNESIGKEYNGWITVKSKGEVSLYDAMDNRIIPAEYRNTEDGTSIHIRLTPYQSVVALFEDLKEVEDQGNFEAKPGYRLDAAWRISSAEVSKYPEFQPVEVTTELKSMGRVLPDFSGYLRYESEFVYDRMPTGRELLNITDVYEGAEVWLNGHCLGMKICPPYQFPLGEALRAGENHIRIEVATTLDRKVKSLPQDMRSLMFYSKITEPTGIVGSVEIWN",QS-17 (PAR %),[1],4.754%
same,Peak75 (PAR %),[2],2.115%
same,Peak57 (PAR %),[3],2.906%
same,ratio PP/QS-21,[4],0.17
"1056 (protein, listed as Solitalea canadensis) MKPIITNLMLLLFAGAASAQSSKELYRSKEFSIYTDKVVQGKYIAKVLSPTEMTSDYQSPVNLYKSPKLTFKFSINGKDNEMISGQDHSINVMAKDGKFISPLITFGKHYVDKKNVPDNTYLEPNIDFTIRLDMRNVLNAFKTDGFYKGADGKKVYKEDFKGVYVAGSTLPLIWDFDNLVHHPDLQLKDDDGDGIYEVKVVLNEFKEQPSVSSNWKLKRNISAFPQYQASSPIENAMYNLSLDEMENAIEADSTLRTGKEWAGVWTRDVSYSIILSMAILQPKVAEYSLLRKVKNDRIIQDTGTGGAYPVSTDRMIWAVAAWEIYKTTGDKNWLSKAYSIIKNSIEDDWKNAYDPKTGLVKGESSFLDWREQEYPKWMQPADIYESECLGTNVVHFQANKVFAEMAILLGQKTVSDEHNAIAQTIKTGINNYLWIANKGYYGQYLYGRNYKILSPRSEALGEALAVIFGVADNERQKTIVRNTPVNSFGIPCFYPQLPNTPPYHNNAVWPFVQTYWALAAANAGNEQSVMESIAAIYRPAALFLTNKENFVADNGDFAGTQINSSNMLWSLSGNIALVYKVLFGMQFGADRLTFKPTVPQALAGTRMLTNFKYRNALLTISMQGFGTQIKSITMDGKPLVNAIVPASLTGKHTIKMVLTNMMESSSTTILPAYTSLTIPQVELKNDEIVWKKVPNAVSYVFIKNGDRIDNGIDTACIINNNSFAEYQVIAVDKNGVESFGSEPLQIIPEQTVKTIEIENLTSKADLPYKGYSGDGFVEISTQKNTILSFETTITEAGTYAINFKYANGNGPINTENKCAFRTLKLNNKQVGTVVLPQRGTNEWSEWGMSNSVIVELKAGTNKFDLTYETNNANMNGTVNQAMLDYVRIVKVE",QS-17 (PAR %),[1],4.774%
same,Peak75 (PAR %),[2],2.416%
same,Peak57 (PAR %),[3],2.796%
same,ratio PP/QS-21,[4],0.17
"996 (protein, listed as Opitutus terrae) MHRRFLAAILLGAPALLESAAAAPETPAAPPPAAAQPLAWPEVHRETKPWSRWWWFGNIADEKSVTAQLEACAAAGLGGLEITPIYGVRGYEDRFVPFLSPRWMELLRHTLVESRRLGLGIDLATGTGWPFGGPWLQPEDVAHTLAHRVYEIKPGERLGEPVRLTATGLVRVAGPRPVKLEELREPITANANLQELALDQVRFPKPMRLVSLMAFPLALAGVAPTPLDLTSRVRADGSLDWTAPADAGTWTLYALFAGPHGKMVERAAPGGEGFALDHFSSTALRAYLARFDAAFAEGHLLSDLPSAAGADSAPRLRAFFNDSYEVDDADGEANWTPRFLEEFQKRRGYDLRAHLPELLATTENDFSARVRSDYRETISDLLLDEFTNPWREWAHQHGALIRNQAHNSPANILDLYAASDIPEQEGNGFLAMKLASSAAHVSGKPLASAETATWLNEHFLTTLAELKQNTDEFLLAGINHVCYHGTALSPLDAAWPGFNFYASVELNPLNPFWRDFTALNAYVARAQSFLQSGTPDEDVLLYYNIHDRWAERGNGRMPHFGHGGRDPSGSLAATAAALHEAGVGFDYVSDRQLQKITPDRAIVVPQTTFMPEATLARLVELAAQGATILFVDHLPRSAPGLAGLNASGRFEQLLQKIQTQLAPSDVLSAAKLDGGQFLLGPGIRELLDRCPGIARESLRPFGLEFVRRRTDAGALYFLVNRSNQPIDRWIPLQSPAAAAALFDPMTGNAGLAAIHSSGPTGSASIPPAHSDGARASRAPTEIYLQLAPGESCVVQLHATPVAGPAWHYWQRAGEPHLLTGDWSVTFTAGGPALPAAAQLHALTSWTDFAGEAGRAFSGTAVYTRRFARPSGDAPAWELDLGTVGDSARVTLNGRELGVLIQPPWRVVIPANEWRDENALEIDVTNLAANRIADLDRRGASWKIFYNANFPARFRENVGPDRQFTAARWLPRNSGLLGPVKLTPLQKSDPTL",QS-17 (PAR %),[1],4.778%
same,Peak75 (PAR %),[2],2.221%
same,Peak57 (PAR %),[3],3.190%
same,ratio PP/QS-21,[4],0.16
"1069 (protein, listed as Deltaproteobacteria bacterium) MSLHDRSWVWNPDWNESRKETSAGGFVHFRREIDLEKRPSRPIFISITADTRYKLYINSKFVHHGPVKGDSQVWYYDELDIQPYMKAGKNTIAVRVLRLYHGTRFGTSFPRMPLGGLRIQHIRDSNDPPIIFSIETNGSWKTAVDRSSFLPIIEDDMFLHIFEAVDRRNDCKLQWTSAKPHKIFNAFGLVSPWKLSPRQIPFANFRPAIFSTIHNIRSTSNDAEVVDWQACLLAKSSNRTPVRLAAGTIHHVELEASHHLTAFMSFLFERPENPGAEIKITYSECYEDVPDNPQFRQKADRRDTSKKLLGPYDTFILGGRIYEQEDPSSAYHESGEDMVIFAPFHFRTFRFIAIDIAVNSDSDLIFHGVQITRTKYPLDVLAQFSPGGRDVTLPVQKMWETSILTLENCMHDCYEDCPFYEQLQYAMDTRSSALFTYYLSGDDRLARQAITQTRNSFQPSIGLTASRAPCEHLQIIPNFSLFWICMVADHYLHYGDMAFTSQFLPVCDAVLDSFRRRIDPDLGLVRCYDTDDFWDFVDWTEAWKPRGIPPAGKRTGYQTFSSSLYAYTLNLIAPAVEEYGRKGVAEEYRQSAAEVAASIWQHCFDGQYFTDGLAGSALNSEYSQHNQVWAILSGAVIGDEARQLLSKTLSRHDLTTPSIAMSFYTLQAVSLVGGDLYDLHFNDFWAPWIEQLSNNVTTWVEDNVSQRSECHAWGSAPIYEFMAEVVGLRPLEPGWRSISFKPRLALFETMDSKVPIPIRGSSGMAVAHVRWGRKGDDIAGVTIELKKGAENLRIPITLSHESGEDEVVISPFARDVRIQ",QS-17 (PAR %),[1],4.786%
same,Peak75 (PAR %),[2],2.213%
same,Peak57 (PAR %),[3],2.596%
same,ratio PP/QS-21,[4],0.17
